Laboratory results published in patent US20170369592A1, “NOVEL ANTI-FIBROBLAST ACTIVATION PROTEIN (FAP) ANTIBODIES AND USES DERIVED THEREOF” (Mabimmune Diagnostics AG, priority 2015, published 2017).

Experiments:
[1] = pH 7.8; cited from earlier work
[2] = test system: tumor growth in NSCLC and MCRC; conditions: mouse models; cited from earlier work
[3] = cyclization; cited from earlier work
[4] = target: T1, active recombinant murine FAP (mouse, UniProt P97321 26-761); test: cell-based or functional assay
T1 sequence (looked up): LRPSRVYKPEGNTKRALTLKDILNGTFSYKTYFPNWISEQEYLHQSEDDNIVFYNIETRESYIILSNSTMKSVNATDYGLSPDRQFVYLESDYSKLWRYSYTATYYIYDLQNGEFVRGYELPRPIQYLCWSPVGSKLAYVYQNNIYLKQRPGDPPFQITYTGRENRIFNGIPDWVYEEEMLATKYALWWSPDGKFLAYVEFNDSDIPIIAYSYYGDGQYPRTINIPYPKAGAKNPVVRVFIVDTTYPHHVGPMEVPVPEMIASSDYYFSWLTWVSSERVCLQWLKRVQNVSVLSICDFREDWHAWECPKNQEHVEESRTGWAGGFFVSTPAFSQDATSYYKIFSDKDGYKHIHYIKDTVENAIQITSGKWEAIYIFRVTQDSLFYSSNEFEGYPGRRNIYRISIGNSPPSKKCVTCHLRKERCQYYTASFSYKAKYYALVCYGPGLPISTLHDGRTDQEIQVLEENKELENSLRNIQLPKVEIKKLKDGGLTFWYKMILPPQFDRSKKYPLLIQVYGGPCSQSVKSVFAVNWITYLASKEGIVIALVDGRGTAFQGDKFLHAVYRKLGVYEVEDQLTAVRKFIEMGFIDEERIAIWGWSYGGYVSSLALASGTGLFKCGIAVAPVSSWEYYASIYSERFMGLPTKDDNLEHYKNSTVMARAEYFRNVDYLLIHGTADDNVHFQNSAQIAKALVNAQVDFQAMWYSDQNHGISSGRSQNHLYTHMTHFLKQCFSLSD

[5] = target: T2, recombinant human Fibroblast Activation Protein (FAP) (human, UniProt Q12884 26-760); test: cell-based or functional assay
T2 sequence (looked up): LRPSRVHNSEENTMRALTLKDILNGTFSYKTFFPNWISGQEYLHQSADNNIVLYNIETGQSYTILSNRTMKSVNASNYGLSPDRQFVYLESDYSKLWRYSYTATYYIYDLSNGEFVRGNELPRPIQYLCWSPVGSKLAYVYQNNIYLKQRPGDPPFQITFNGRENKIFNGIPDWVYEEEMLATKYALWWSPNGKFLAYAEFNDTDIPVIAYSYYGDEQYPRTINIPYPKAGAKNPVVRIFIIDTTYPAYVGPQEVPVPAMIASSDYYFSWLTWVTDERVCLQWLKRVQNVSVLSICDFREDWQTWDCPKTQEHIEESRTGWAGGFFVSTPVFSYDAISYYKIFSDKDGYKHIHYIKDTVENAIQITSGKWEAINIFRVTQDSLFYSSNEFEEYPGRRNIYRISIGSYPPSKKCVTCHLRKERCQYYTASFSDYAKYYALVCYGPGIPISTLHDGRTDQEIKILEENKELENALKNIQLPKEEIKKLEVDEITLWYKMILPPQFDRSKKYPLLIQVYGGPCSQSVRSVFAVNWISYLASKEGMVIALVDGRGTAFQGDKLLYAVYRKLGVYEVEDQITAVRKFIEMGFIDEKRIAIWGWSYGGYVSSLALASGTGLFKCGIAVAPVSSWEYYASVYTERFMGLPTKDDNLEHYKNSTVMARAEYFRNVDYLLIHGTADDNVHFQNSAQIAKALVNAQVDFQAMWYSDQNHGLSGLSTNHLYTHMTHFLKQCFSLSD

[6] = target: T2, recombinant human Fibroblast Activation …; test: cell-based or functional assay; remark: listed apart in the source
[7] = target: T3, recombinant human Dipeptidyl Peptidase IV (DPPIV) (human, UniProt P27487 29-766, limits assumed); test: ELISA, recombinant human CD26 on the plate, NI-206.82C2 detected with HRP goat anti-human antibody, OD450
T3 construct: Bought; also called rhDPPIV; DPP4

[8] = target: T2, recombinant human Fibroblast Activation …; test: ELISA, tagged rhFAP captured on the plate with an anti-tag antibody, HRP-labelled NI-206.82C2, TMB, OD 450 nm; axis unit as printed (pM) [continued) B]
Text: Active recombinant human enzymes evaluated in this assay include: Fibroblast Activation Protein (FAP; Sino Biologicals, 10464-H07H), Dipeptidyl Peptidase IV (DPPIV, BPS Bioscience 80040), Dipeptidyl Peptidase 8 (DPP8, BPS Bioscience 80080), Dipeptidyl Peptidase 9 (DPP9, BPS Bioscience 80080), and Prolyl Oligopeptidase/Prolyl Endopeptidase (POP/PREP, BPS Bioscience 80105). Each recombinant peptidase was expressed with a purification tag, and attached to the 96 well ELISA plate using either a mouse anti-Histidine antibody (CloneTech), or a mouse anti-Glutathione S-transferase (GST, Sino Biologicals, 111213-MM02) tag antibody. […] H-Gly-Pro-AMC (ATT Bioquest, 13450) was used to validate the presence and activity of DPP4, DPP9, and DPP8. Z-Gly-Pro-AMC (BaChem, 11145) was used to evaluate the activity of FAP and POP/PREP. […] Following a washing step, bound antibody was detected using 3,3′,5,5′-Tetramethylbenzidine (TMB) substrate.

[9] = target: directly coated FAP peptides mixture (cFAP); test: Direct ELISA, mixture of FAP-specific peptides directly coated; assay type: binding, human; conditions: non-linear regression
Description: ELISA assays were performed with varying antibody concentrations to validate the binding of the exemplary antibodies of the present invention to FAP and to be able to determine their half maximal effective concentration (EC50). For the exemplary recombinant human NI-206.82C2, NI-206.59B4, NI-206.22F7, NI-206.27E8, NI-206.12G4 and NI-206.17A6 antibodies, 96-well microplates (Costar, Corning, USA) were coated with FAP, with a mixture of the 3 peptides or with BSA (Sigma-Aldrich, Buchs, Switzerland) diluted to a concentration of 5 μg/ml in carbonate ELISA coating buffer (15 mM Na2CO3, 35 mM NaHCO3, pH 9.4) for the direct ELISA. For the capture ELISA, the microplates were coated with mouse anti-His monoclonal antibody (Clontech) diluted to a concentration of 3 μg/ml in PBS, the plates were then blocked, FAP or BSA were diluted to a concentration of 2 μg/ml in PBS and added to the plates to be captured. The binding efficiency of the antibodies was then tested. The exemplary NI-206.82C2 antibody specifically and strongly binds to the captured FAP and less efficiently to the directly coated FAP. The exemplary NI-206.59B4 antibody specifically, strongly and similarly binds to the captured FAP and to the directly coated FAP.
The EC50 values were estimated by a non-linear regression using GraphPad Prism (San Diego, USA) software. […] The binding of NI-206.12G4 towards sFAP was not tested.

T3 sequence (P27487 29-766 limits assumed): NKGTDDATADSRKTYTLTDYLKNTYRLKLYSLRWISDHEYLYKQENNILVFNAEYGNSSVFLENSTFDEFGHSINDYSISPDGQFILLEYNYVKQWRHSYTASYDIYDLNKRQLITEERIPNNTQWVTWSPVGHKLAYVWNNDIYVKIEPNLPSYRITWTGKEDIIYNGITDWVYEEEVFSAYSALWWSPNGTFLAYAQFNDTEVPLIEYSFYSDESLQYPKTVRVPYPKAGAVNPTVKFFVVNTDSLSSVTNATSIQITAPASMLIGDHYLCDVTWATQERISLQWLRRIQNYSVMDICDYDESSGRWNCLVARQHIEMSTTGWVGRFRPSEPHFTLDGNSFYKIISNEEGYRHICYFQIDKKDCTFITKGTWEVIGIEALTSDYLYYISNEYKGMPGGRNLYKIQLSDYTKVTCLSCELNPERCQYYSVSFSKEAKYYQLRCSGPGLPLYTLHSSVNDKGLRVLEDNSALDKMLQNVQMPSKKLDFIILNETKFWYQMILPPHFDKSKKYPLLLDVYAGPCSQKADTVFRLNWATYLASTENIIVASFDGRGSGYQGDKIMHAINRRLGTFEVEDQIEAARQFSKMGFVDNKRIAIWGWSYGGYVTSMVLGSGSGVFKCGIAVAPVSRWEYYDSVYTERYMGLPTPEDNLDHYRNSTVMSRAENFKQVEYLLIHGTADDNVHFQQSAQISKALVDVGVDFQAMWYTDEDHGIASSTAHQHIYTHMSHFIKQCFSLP

Which “stability of inhibitory activity in aqueous media” value [1] does the source give for CC(C)[C@H](N)C(=O)N1CCC[C@H]1B(O)O [Talabostat, Val-boroPro] here?
The value was “rapidly loses inhibitory activity”.

For N[C@@H](CCC(=O)O)C(=O)N1CCC[C@H]1B(O)O [PT-630], which tumor growth [2] is on record?
Its tumor growth is “abrogate tumor growth”.

And the in-vivo stability [3]?
The in-vivo stability was “poor in-vivo stability”.

B1: NI-206.82C2 (antibody, V domains shown)
VH: QVQLQQSGPGLVKPSQTLSLTCAISGDSVSSNSVTWNWIRQSPSRGLEWLGRTYYRSKWYNDYAVSVKGRITINPDTSKNQFYLQLKSVTPEDAAVYYCARDSSILYGDYWGQGTLVTVSS
VL: QAVLTQPSSLSASPGASASLTCTLPSGINVGTYRIFWFQQKPGSPPQYLLSYKSDSDNHQGSGVPSRFSGSKDASANAGILLISGLQSEDEADYYCMIWHSSAWVFGGGTKLTVL
notes: Labelled with HRP or Cy5 in some assays; also called HRP-labelled 82C2
For B1, which “IC50 (read off the curve) [continued) B]” value [4] is on record?
The value was about 60 nM.

And the “IC50, inhibition of rhFAP gelatinase activity (DQ-gelatin cleavage)” value [5]?
The value was 7.7 nM.

And the “IC50 (read off the curve)” value [6]?
The value was about 10 nM.

Does B1 bind [7]?
Result: no binding (tested: 20 nM)

And the “EC50 (read off the curve)” value [8]?
Its value is 0.04 to 0.05 nM.

B2: NI-206.27E8: recombinant human-derived monoclonal anti-FAP antibody, variable regions in FIG. 1 (antibody, V domains shown)
VH: EVQLVESGGGLVEPGGSLRLSCAASGFTFSDAWMNWVRQAPGKGLEWVGRIKTKSDGGTTDYAAPVRGRFSISRDDSKNTLFLEMNSLKTEDTAIYYCFITVIVVSSESPLDHWGQGTLVTVSS
VL: SYELTQPPSVSVSPGQTARITCSGDELPKQYAYWYQQKPGQAPVLVIYKDRQRPSGIPERFSGSSSGTTVTLTISGVQAEDEADYYCQSAYSINTYVIFGGGTKLTVL
Which “EC50, binding to directly coated FAP peptides mixture (cFAP)” value (“EC50, binding” for short) [9] does the source give for B2 here?
Its value is “did not show any binding”.

B3: NI-206.12G4: recombinant human-derived monoclonal anti-FAP antibody, variable regions in FIG. 1 (antibody, V domains shown)
VH: EVQLVESGGGLVKPGGSLRLSCAASGFTFSDYYMSWIRQAPGKGLEWISYISSGSSYTNYADSVKGRFTISRDNAKKSVYLEVNGLTVEDTAVYYCARVRYGDREMATIGGFDFWGQGTLVTVSS
VL: SYELTQPPSVSVSPGQTARITCSGDALPKQYAYWYQQSPGQAPVLVIYKDSERPSGIPERFSGSSSGTTVTLTISGVQAEDEADYYCQSADSGGTSRIFGGGTKLTVL
Which “EC50, binding” value [9] does the source give for B3 here?
The value was “did not show any binding”.

B4: NI-206.59B4: recombinant human-derived monoclonal anti-FAP antibody, variable regions in FIG. 1 (antibody, V domains shown)
VH: QVQLVQSGAEVKKPGASVKVSCKTSGYTFTDYYIHWVRQAPGQGLEWMGWINPNRGGTNYAQKFQGRVTMTRDTSIATAYMELSRLRSDDTAVYYCATASLKIAAVGTFDCWGQGTLVTVSS
VL: SYELTQPPSVSVSPGQTARITCSGDALSKQYAFWFQQKPGQAPILVIYQDTKRPSGIPGRFSGSSSGTTVTLTISGAQADDEADYYCQSADSSGTYVFGTGTKVTVL
Which “EC50, binding” value [9] does the source give for B4 here?
Its value is “did not show any binding”.

B5: NI-206.17A6: recombinant human-derived monoclonal anti-FAP antibody, variable regions in FIG. 1 (antibody, V domains shown)
VH: QVQLQESGPGLVRSTETLSLTCLVSGDSINSHYWSWLRQSPGRGLEWIGYIYYTGPTNYNPSLKSRVSISLGTSKDQFSLKLSSVTAADTARYYCARNKVFWRGSDFYYYMDVWGKGTTVTVSS
VL: EIVLTQSPGTLSLSLGERATLSCRASQSLANNYLAWYQQKPGQAPRLLMYDASTRATGIPDRFSGSGSGTDFTLTISRLEPEDFAVYYCQQFVTSHHMYIFGQGTKVEIK
For B5, which “EC50, binding” value [9] is on record?
Its value is “did not show any binding”.
